Source: patent US20120172293A1 (Takeda / Millennium, published 2012)
Non-standard residues stand in square brackets, D forms with d. *: point of attachment. X3 = ((1S)-1-Carboxy-2-hydroxyethyl)carbamoyl, O=C(O)[C@H](CO)NC(=O)*; X2 = (tetrahydro-2H-pyran-4-ylmethyl)carbamoyl, O=C(NCC1CCOCC1)*; Tetrahydropyran4carbonyl = O=C(C1CCOCC1)*; tBuAla = CC(C)(C)C[C@H](N)C(=O)O; 4Pal = N[C@@H](Cc1ccncc1)C(=O)O; dHyp = O=C(O)[C@H]1C[C@H](O)CN1; Cha = N[C@@H](CC1CCCCC1)C(=O)O; Iva = CC[C@](C)(N)C(=O)O; Nva = CCC[C@H](N)C(=O)O; Aib = CC(C)(N)C(=O)O

B1: (Tetrahydro-2H-pyran-4-yl)carbonyl-[D-Pro24, Iva25, Pya(4)26, Cha27,36, Aib28,31, Lys30]-PYY(23-36) (peptide)
peptide: Tetrahydropyran4carbonyl-S[dP][Iva][4Pal][Cha][Aib]NK[Aib]TRQR[Cha]-NH2
SMILES: CC[C@](C)(NC(=O)[C@H]1CCCN1C(=O)[C@H](CO)NC(=O)C1CCOCC1)C(=O)N[C@@H](Cc1ccncc1)C(=O)N[C@@H](CC1CCCCC1)C(=O)NC(C)(C)C(=O)N[C@@H](CC(N)=O)C(=O)N[C@@H](CCCCN)C(=O)NC(C)(C)C(=O)N[C@H](C(=O)N[C@@H](CCCNC(=N)N)C(=O)N[C@@H](CCC(N)=O)C(=O)N[C@@H](CCCNC(=N)N)C(=O)N[C@@H](CC1CCCCC1)C(N)=O)[C@@H](C)O
B2: Ac-[D-Pro24, Iva25, Pya(4)26, Cha27,36, Nva28, Aib31, Lys30]-PYY(23-36) (peptide)
peptide: Ac-S[dP][Iva][4Pal][Cha][Nva]NK[Aib]TRQR[Cha]-NH2
SMILES: CCC[C@H](NC(=O)[C@H](CC1CCCCC1)NC(=O)[C@H](Cc1ccncc1)NC(=O)[C@](C)(CC)NC(=O)[C@H]1CCCN1C(=O)[C@H](CO)NC(C)=O)C(=O)N[C@@H](CC(N)=O)C(=O)N[C@@H](CCCCN)C(=O)NC(C)(C)C(=O)N[C@H](C(=O)N[C@@H](CCCNC(=N)N)C(=O)N[C@@H](CCC(N)=O)C(=O)N[C@@H](CCCNC(=N)N)C(=O)N[C@@H](CC1CCCCC1)C(N)=O)[C@@H](C)O
B3: Carbamoylmethylcarbamoyl-[D-Pro24, Iva25, Pya(4)26, Cha27,36, Aib28,31, Lys30]-PYY(23-36) (peptide)
peptide: Carbamoylmethylcarbamoyl-S[dP][Iva][4Pal][Cha][Aib]NK[Aib]TRQR[Cha]-NH2
B4: [(1S)-1-Carboxy-2-hydroxyethyl]carbamoyl-[D-Pro24, Iva25, Pya(4)26, Cha27,36, Aib28,31, Lys30]-PYY(23-36) (peptide)
peptide: X3-S[dP][Iva][4Pal][Cha][Aib]NK[Aib]TRQR[Cha]-NH2
SMILES: CC[C@](C)(NC(=O)[C@H]1CCCN1C(=O)[C@H](CO)NC(=O)N[C@@H](CO)C(=O)O)C(=O)N[C@@H](Cc1ccncc1)C(=O)N[C@@H](CC1CCCCC1)C(=O)NC(C)(C)C(=O)N[C@@H](CC(N)=O)C(=O)N[C@@H](CCCCN)C(=O)NC(C)(C)C(=O)N[C@H](C(=O)N[C@@H](CCCNC(=N)N)C(=O)N[C@@H](CCC(N)=O)C(=O)N[C@@H](CCCNC(=N)N)C(=O)N[C@@H](CC1CCCCC1)C(N)=O)[C@@H](C)O
B5: Ac-[Glu23, D-Hyp24, Iva25, Pya(4)26, Cha27,36, Leu(Me)28, Lys30, Aib31]-PYY(23-36) (peptide)
peptide: Ac-E[dHyp][Iva][4Pal][Cha][tBuAla]NK[Aib]TRQR[Cha]-NH2
SMILES: CC[C@](C)(NC(=O)[C@H]1C[C@H](O)CN1C(=O)[C@H](CCC(=O)O)NC(C)=O)C(=O)N[C@@H](Cc1ccncc1)C(=O)N[C@@H](CC1CCCCC1)C(=O)N[C@@H](CC(C)(C)C)C(=O)N[C@@H](CC(N)=O)C(=O)N[C@@H](CCCCN)C(=O)NC(C)(C)C(=O)N[C@H](C(=O)N[C@@H](CCCNC(=N)N)C(=O)N[C@@H](CCC(N)=O)C(=O)N[C@@H](CCCNC(=N)N)C(=O)N[C@@H](CC1CCCCC1)C(N)=O)[C@@H](C)O
B6: (Tetrahydro-2H-pyran-4-ylmethyl)carbamoyl-[D-Pro24, Iva25, Pya(4)26, Cha27,36, Aib28,31, Lys30]-PYY(23-36) (peptide)
peptide: X2-S[dP][Iva][4Pal][Cha][Aib]NK[Aib]TRQR[Cha]-NH2
SMILES: CC[C@](C)(NC(=O)[C@H]1CCCN1C(=O)[C@H](CO)NC(=O)NCC1CCOCC1)C(=O)N[C@@H](Cc1ccncc1)C(=O)N[C@@H](CC1CCCCC1)C(=O)NC(C)(C)C(=O)N[C@@H](CC(N)=O)C(=O)N[C@@H](CCCCN)C(=O)NC(C)(C)C(=O)N[C@H](C(=O)N[C@@H](CCCNC(=N)N)C(=O)N[C@@H](CCC(N)=O)C(=O)N[C@@H](CCCNC(=N)N)C(=O)N[C@@H](CC1CCCCC1)C(N)=O)[C@@H](C)O

biological target: human Y2 receptor (human) (UniProt P49146); test: cell-based or functional assay
Sequence (P49146 whole entry): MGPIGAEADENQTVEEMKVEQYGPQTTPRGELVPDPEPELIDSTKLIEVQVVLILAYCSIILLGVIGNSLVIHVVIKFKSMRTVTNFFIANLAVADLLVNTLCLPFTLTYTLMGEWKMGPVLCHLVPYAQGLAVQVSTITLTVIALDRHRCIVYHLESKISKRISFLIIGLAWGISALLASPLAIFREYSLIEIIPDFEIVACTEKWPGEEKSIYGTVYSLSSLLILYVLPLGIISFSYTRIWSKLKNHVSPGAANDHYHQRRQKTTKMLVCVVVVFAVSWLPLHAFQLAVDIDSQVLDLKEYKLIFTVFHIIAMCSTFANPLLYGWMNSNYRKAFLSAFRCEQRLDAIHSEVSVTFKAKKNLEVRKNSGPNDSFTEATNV

| GBA EC50 Ratio ([35S]GTPγS binding) (EC50 compound/EC50 PYY(3-36)) | Binder |
| --- | --- |
| 1.9 | B1 |
| 1.3 | B2 |
| 1.7 | B3 |
| 3 | B4 |
| 1.9 | B5 |
| 1.9 | B6 |

biological target: human Y2 receptor (human) (UniProt P49146); test: RBA: displacement of [125I]-PYY from hY2R/CHO membranes

| IC50 Ratio (IC50 compound/IC50 PYY(3-36)) | Binder |
| --- | --- |
| 3.3 | B1 |
| 1.6 | B2 |
| 1.7 | B3 |
| 3.5 | B4 |
| 1.2 | B5 |
| 1.7 | B6 |
